Assay results reported in the supplement of paper PMC9112550, “Optimization of the antimicrobial peptide Bac7 by deep mutational scanning” (BMC Biology, 2022).

Tested on: Escherichia coli TOP10
Experiment: shrunken log2 fold change of peptide-encoding DNA abundance (4.5 h post-induction vs induction); higher = less antimicrobial activity (less host growth inhibition)
Settings: time post-induction: 4.5 h; library: site-saturation at positions 5, 18, 19, 20
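Note: peptides expressed intracellularly from a pBAD plasmid library in pooled LB shake-flask culture, induced with 0.3% L-arabinose, DNA abundance read by NGS, three biological replicates, DESeq2 with apeglm shrinkage.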

Row | Sequence | shrunken log2 fold change
1 | RRIRNRPPRLPRPRPRPWWMPRP | -0.0246
2 | RRIRHRPPRLPRPRPRPTKHPRP | -0.142
3 | RRIRPRPPRLPRPRPRPHWCPRP | -0.159
4 | RRIRNRPPRLPRPRPRPKMCPRP | -0.0269
5 | RRIRCRPPRLPRPRPRPRGNPRP | 0.0747
6 | RRIRLRPPRLPRPRPRPWYQPRP | -0.149
7 | RRIRDRPPRLPRPRPRPTDHPRP | -0.0425
8 | RRIRKRPPRLPRPRPRPLMKPRP | 0.0125
9 | RRIRVRPPRLPRPRPRPFTKPRP | -0.79
10 | RRIRERPPRLPRPRPRPSDIPRP | -0.0101
11 | RRIRCRPPRLPRPRPRPKVRPRP | 0.195
12 | RRIRLRPPRLPRPRPRPSRQPRP | -0.189
13 | RRIRDRPPRLPRPRPRPRNQPRP | -0.00575
14 | RRIRLRPPRLPRPRPRPGQYPRP | -0.0693
15 | RRIRYRPPRLPRPRPRPFFVPRP | -0.689
16 | RRIRDRPPRLPRPRPRPPLRPRP | 0.271
17 | RRIRNRPPRLPRPRPRPKVFPRP | 0.0215
18 | RRIRARPPRLPRPRPRPLFGPRP | 0.235
19 | RRIRTRPPRLPRPRPRPFRQPRP | 0.0156
20 | RRIRNRPPRLPRPRPRPVKWPRP | -0.286
21 | RRIRGRPPRLPRPRPRPPHIPRP | 0.551
22 | RRIRSRPPRLPRPRPRPCGFPRP | -0.0141
23 | RRIRFRPPRLPRPRPRPKYHPRP | -0.428
24 | RRIRNRPPRLPRPRPRPNIQPRP | -0.748
25 | RRIRIRPPRLPRPRPRPEQQPRP | -0.132

Row | Sequence | shrunken log2 fold change
26 | RRIRHRPPRLPRPRPRPVSKPRP | -0.0396
27 | RRIRKRPPRLPRPRPRPHTQPRP | 0.13
28 | RRIRYRPPRLPRPRPRPMAPPRP | 0.025
29 | RRIRKRPPRLPRPRPRPQYSPRP | -0.906
30 | RRIRNRPPRLPRPRPRPKRSPRP | 0.115
31 | RRIRQRPPRLPRPRPRPMHAPRP | 0.254
32 | RRIRCRPPRLPRPRPRPFGCPRP | -0.308
33 | RRIRKRPPRLPRPRPRPHYDPRP | 0.0324
34 | RRIRIRPPRLPRPRPRPCHNPRP | -0.293
35 | RRIRVRPPRLPRPRPRPRLIPRP | -0.293
36 | RRIRLRPPRLPRPRPRPGCSPRP | 0.0547
37 | RRIRHRPPRLPRPRPRPVIQPRP | -0.00152
38 | RRIRKRPPRLPRPRPRPLCMPRP | 0.081
39 | RRIRVRPPRLPRPRPRPPASPRP | 0.398
40 | RRIRIRPPRLPRPRPRPPCAPRP | 0.201
41 | RRIRLRPPRLPRPRPRPDFYPRP | -0.324
42 | RRIRTRPPRLPRPRPRPLMFPRP | -0.516
43 | RRIRPRPPRLPRPRPRPLCPPRP | -0.128
44 | RRIRRRPPRLPRPRPRPNQLPRP | -0.178
45 | RRIRERPPRLPRPRPRPENKPRP | -0.697
46 | RRIRFRPPRLPRPRPRPQWMPRP | -0.414
47 | RRIRNRPPRLPRPRPRPPEGPRP | 1.62
48 | RRIRKRPPRLPRPRPRPSCHPRP | -0.132
49 | RRIRVRPPRLPRPRPRPNWCPRP | -0.00931
50 | RRIRTRPPRLPRPRPRPSEAPRP | 0.0182

Row | Sequence | shrunken log2 fold change
51 | RRIRFRPPRLPRPRPRPDWQPRP | 0.0911
52 | RRIRIRPPRLPRPRPRPRNSPRP | 0.0503
53 | RRIRVRPPRLPRPRPRPYPAPRP | -0.715
54 | RRIRRRPPRLPRPRPRPWVHPRP | 0.000557
55 | RRIRWRPPRLPRPRPRPCWCPRP | -0.215
56 | RRIRMRPPRLPRPRPRPKTLPRP | 0.687
57 | RRIRIRPPRLPRPRPRPYCFPRP | -0.834
58 | RRIRVRPPRLPRPRPRPAMCPRP | -0.178
59 | RRIRCRPPRLPRPRPRPNFKPRP | -0.21
60 | RRIRLRPPRLPRPRPRPMIGPRP | 0.0237
61 | RRIRCRPPRLPRPRPRPENNPRP | -0.303
62 | RRIRWRPPRLPRPRPRPVGRPRP | 0.0962
63 | RRIRQRPPRLPRPRPRPEIGPRP | 0.0792
64 | RRIRRRPPRLPRPRPRPAFSPRP | -0.00711
65 | RRIRFRPPRLPRPRPRPADRPRP | -0.0752
66 | RRIRWRPPRLPRPRPRPNCHPRP | 0.0398
67 | RRIRLRPPRLPRPRPRPENTPRP | -0.235
68 | RRIRWRPPRLPRPRPRPTSMPRP | -0.0665
69 | RRIRCRPPRLPRPRPRPNFDPRP | -0.179
70 | RRIRKRPPRLPRPRPRPHRHPRP | 0.023
71 | RRIRLRPPRLPRPRPRPSQIPRP | 0.0199
72 | RRIRERPPRLPRPRPRPATPPRP | 1.31
73 | RRIRCRPPRLPRPRPRPCQHPRP | -0.161
74 | RRIRVRPPRLPRPRPRPCFKPRP | -0.243
75 | RRIRARPPRLPRPRPRPLIWPRP | 0.359

Row | Sequence | shrunken log2 fold change
76 | RRIRIRPPRLPRPRPRPAWSPRP | -0.191
77 | RRIRWRPPRLPRPRPRPHIHPRP | -0.359
78 | RRIRNRPPRLPRPRPRPIFGPRP | -0.0237
79 | RRIRTRPPRLPRPRPRPVAFPRP | -0.225
80 | RRIRKRPPRLPRPRPRPIHAPRP | -0.000921
81 | RRIRNRPPRLPRPRPRPTHQPRP | 0.194
82 | RRIRCRPPRLPRPRPRPVMAPRP | -0.354
83 | RRIRCRPPRLPRPRPRPSTKPRP | -0.277
84 | RRIRIRPPRLPRPRPRPLAPPRP | 0.157
85 | RRIRQRPPRLPRPRPRPTMWPRP | 0.16
86 | RRIRSRPPRLPRPRPRPFPKPRP | 0.107
87 | RRIRYRPPRLPRPRPRPQIPPRP | -0.17
88 | RRIRTRPPRLPRPRPRPDLIPRP | -0.0343
89 | RRIRARPPRLPRPRPRPLELPRP | 0.386
90 | RRIRNRPPRLPRPRPRPWVRPRP | -0.0742
91 | RRIRYRPPRLPRPRPRPEREPRP | -0.0221
92 | RRIRERPPRLPRPRPRPKTMPRP | -0.293
93 | RRIRHRPPRLPRPRPRPCTNPRP | -0.249
94 | RRIRFRPPRLPRPRPRPKHGPRP | 0.405
95 | RRIRYRPPRLPRPRPRPFFNPRP | -0.811
96 | RRIRNRPPRLPRPRPRPMVTPRP | -0.157
97 | RRIRLRPPRLPRPRPRPKYNPRP | -0.703
98 | RRIRKRPPRLPRPRPRPKTMPRP | 0.185
99 | RRIRMRPPRLPRPRPRPKEPPRP | -0.074
100 | RRIRLRPPRLPRPRPRPPKMPRP | 0.159

Row | Sequence | shrunken log2 fold change
101 | RRIRGRPPRLPRPRPRPILGPRP | -0.0749
102 | RRIRNRPPRLPRPRPRPHPIPRP | 0.033
103 | RRIRGRPPRLPRPRPRPPGMPRP | 0.989
104 | RRIRDRPPRLPRPRPRPSLIPRP | -0.156
105 | RRIRLRPPRLPRPRPRPTCQPRP | 0.0421
106 | RRIRDRPPRLPRPRPRPFLDPRP | 0.431
107 | RRIRHRPPRLPRPRPRPDNFPRP | -0.0184
108 | RRIRERPPRLPRPRPRPEDTPRP | -0.343
109 | RRIRNRPPRLPRPRPRPGVSPRP | -0.279
110 | RRIRIRPPRLPRPRPRPNSMPRP | -1.23
111 | RRIRLRPPRLPRPRPRPLRRPRP | 0.249
112 | RRIRKRPPRLPRPRPRPVNSPRP | 0.0157
113 | RRIRMRPPRLPRPRPRPDSAPRP | 0.599
114 | RRIRHRPPRLPRPRPRPPEMPRP | 0.484
115 | RRIRLRPPRLPRPRPRPYKIPRP | -0.0766
116 | RRIRWRPPRLPRPRPRPAHDPRP | 0.0987
117 | RRIRWRPPRLPRPRPRPKLMPRP | 0.31
118 | RRIRIRPPRLPRPRPRPTWFPRP | 0.159
119 | RRIRHRPPRLPRPRPRPNRAPRP | -0.0865
120 | RRIRTRPPRLPRPRPRPSRLPRP | 0.0405
121 | RRIRLRPPRLPRPRPRPEATPRP | 0.294
122 | RRIRNRPPRLPRPRPRPAYQPRP | -0.146
123 | RRIRRRPPRLPRPRPRPYDMPRP | -0.532
124 | RRIRKRPPRLPRPRPRPRFSPRP | 0.17
125 | RRIRLRPPRLPRPRPRPDRMPRP | -0.0414

Row | Sequence | shrunken log2 fold change
126 | RRIRRRPPRLPRPRPRPEQNPRP | 0.849
127 | RRIRARPPRLPRPRPRPGNWPRP | 0.346
128 | RRIRIRPPRLPRPRPRPTGVPRP | 0.039
129 | RRIRWRPPRLPRPRPRPWCYPRP | -0.475
130 | RRIRVRPPRLPRPRPRPNAFPRP | -0.0289
131 | RRIRYRPPRLPRPRPRPIANPRP | -0.0103
132 | RRIRIRPPRLPRPRPRPDTIPRP | -0.0883
133 | RRIRERPPRLPRPRPRPTYYPRP | -0.614
134 | RRIRGRPPRLPRPRPRPSCPPRP | -0.12
135 | RRIRDRPPRLPRPRPRPWNGPRP | -0.176
136 | RRIRCRPPRLPRPRPRPAKKPRP | 0.00097
137 | RRIRQRPPRLPRPRPRPEDYPRP | -0.0734
138 | RRIRMRPPRLPRPRPRPFLCPRP | -0.0722
139 | RRIRFRPPRLPRPRPRPCKSPRP | -0.0582
140 | RRIRKRPPRLPRPRPRPWYDPRP | -0.153
141 | RRIRHRPPRLPRPRPRPIFQPRP | 0.153
142 | RRIRCRPPRLPRPRPRPWYSPRP | -0.361
143 | RRIRNRPPRLPRPRPRPRVYPRP | -0.0128
144 | RRIRLRPPRLPRPRPRPFYCPRP | -0.472
145 | RRIRDRPPRLPRPRPRPRRRPRP | 0.736
146 | RRIRPRPPRLPRPRPRPSHKPRP | -0.0374
147 | RRIRQRPPRLPRPRPRPEMGPRP | 0.223
148 | RRIRTRPPRLPRPRPRPISWPRP | -0.0406
149 | RRIRNRPPRLPRPRPRPIEYPRP | -0.0134
150 | RRIRPRPPRLPRPRPRPNYCPRP | -0.239
